The values that follow are results of earlier work, collected in publication PMC6944378.

This data set deals with MASP-2 (Homo sapiens) (UniProt O00187). As to the kind of experiment: SPR.
Chain of MASP-2 (Homo sapiens) (O00187 16-686): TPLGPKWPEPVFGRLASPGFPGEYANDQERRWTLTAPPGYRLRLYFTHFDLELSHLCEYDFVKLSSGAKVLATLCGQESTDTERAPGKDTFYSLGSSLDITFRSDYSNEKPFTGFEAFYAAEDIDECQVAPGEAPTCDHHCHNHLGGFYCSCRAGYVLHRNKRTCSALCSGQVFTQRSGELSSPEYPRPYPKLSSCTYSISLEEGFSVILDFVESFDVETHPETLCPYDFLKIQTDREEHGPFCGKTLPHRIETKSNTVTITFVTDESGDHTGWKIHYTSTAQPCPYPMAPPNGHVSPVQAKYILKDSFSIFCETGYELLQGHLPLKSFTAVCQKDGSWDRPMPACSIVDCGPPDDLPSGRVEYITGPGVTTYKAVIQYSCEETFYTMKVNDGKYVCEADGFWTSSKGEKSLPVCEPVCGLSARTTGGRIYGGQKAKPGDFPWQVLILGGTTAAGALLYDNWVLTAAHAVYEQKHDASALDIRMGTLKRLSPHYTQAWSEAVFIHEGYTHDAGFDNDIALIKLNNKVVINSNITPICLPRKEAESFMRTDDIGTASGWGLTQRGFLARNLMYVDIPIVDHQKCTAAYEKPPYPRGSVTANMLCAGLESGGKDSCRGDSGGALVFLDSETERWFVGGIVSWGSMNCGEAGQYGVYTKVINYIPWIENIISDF

Take ecotin (from UniProt P23827): the dissociation constant (Kd) was 24.7 nM.
